Measurements: patent US7819908B2, “Compositions and methods for reducing lung volume” (Aeris Therapeutics, Inc., priority 2002, dated 2010)

Test system: sheep
Assay: Papain-induced emphysema in sheep: lung physiology, plethysmography, CT
Type: in vivo
Description: We examined the safety and utility of trypsin preconditioning for BVR in a group of seven sheep with emphysema generated by prior exposure to papain inhalation. This large animal model of emphysema is one with which we have extensive prior experience.

[1] = papain-induced emphysema, Campbell diagram

B1: papain: enzyme given by inhalation or instilled bronchoscopically to sheep to generate the emphysema model (protein, UniProt P00784 134-345, looked up)
Papain: IPEYVDWRQKGAVTPVKNQGSCGSCWAFSAVVTIEGIIKIRTGNLNEYSEQELLDCDRRSYGCNGGYPWSALQLVAQYGIHYRNTYPYEGVQRYCRSREKGPYAAKTDGVRQVQPYNEGALLYSIANQPVSVVLEAAGKDFQLYRGGIFVGPCGNKVDHAVAAVGYGPNYILIKNSWGTGWGENGYIRIKRGTGNSYGVCGLYTSSFYPVKN
B1 was tested, and the “tissue density in Houndsfield units measured by CT scanning” value (2 weeks following serial papain exposure) was “significant decrease”, the “recoil pressures at full inflation” value (after papain-induced emphysema, baseline 16.4 cm H2O) was 8.9 cm H2O and the “change in TLC and RV” value [1] was “significant increase”. For the same molecule, the “impact on active or passive chest wall mechanics” value [1] was “no significant impact”, the “lung volume measured by plethysmography” value (papain-treated vs untreated, 2 weeks after serial papain exposure) was “significant increase” and the “increase in airway resistance” value (post-papain vs baseline) was 75±16%. For the same molecule, the “residual volume (RV) increased” value (post-papain vs baseline) was 66±21%, the “total lung capacity (TLC) increased” value (post-papain vs baseline) was 10±3% and the “vital capacity (VC) increased” value (post-papain vs baseline) was 11±4%. The “increase in total lung resistance (sum of airway and tissue components)” value (post-papain vs baseline, normal respiratory frequencies) was 40±9%.
